Experimental data published in the Human Domainome abundance scans (Beltran et al. 2025).
± gives the uncertainty stated by the source.

B1: LIM and senescent cell antigen-like-containing domain protein 2, residues 13 to 71; numbered along this chain, Q7Z4I7 (parent)
chain: AVCQRCQARFSPAERIVNSNGELYHEHCFVCAQCFRPFPEGLFYEFEGRKYCEHDFQML

Variants of: B1
Experiment: abundance fitness (aPCA) (normalised: wild type 0, dead -1); higher = more abundant; growth selection in yeast, the domain comes from the species named
Details: Homo sapiens

Variant	abundance fitness
AVCQRCQARFSPAERIVNSNGELWHEHCFVCAQCFRPFPEGLFYEFEGRKYCEHDFQML [Y24W]	-0.123 ± 0.049
AVCQRCQARFSPAERIVNSNGELFHEHCFVCAQCFRPFPEGLFYEFEGRKYCEHDFQML [Y24F]	0.007 ± 0.057
AVCQRCQARFSPAERIVNSNGELGHEHCFVCAQCFRPFPEGLFYEFEGRKYCEHDFQML [Y24G]	-0.238 ± 0.047
AVCQRCQARFSPAERIVNSNGELQHEHCFVCAQCFRPFPEGLFYEFEGRKYCEHDFQML [Y24Q]	-0.282 ± 0.068
AVCQRCQARFSPAERIVNSNGELLHEHCFVCAQCFRPFPEGLFYEFEGRKYCEHDFQML [Y24L]	-0.057 ± 0.037
AVCQRCQARFSPAERIVNSNGELCHEHCFVCAQCFRPFPEGLFYEFEGRKYCEHDFQML [Y24C]	-0.116 ± 0.055
AVCQRCQARFSPAERIVNSNGELDHEHCFVCAQCFRPFPEGLFYEFEGRKYCEHDFQML [Y24D]	-0.444 ± 0.1
AVCQRCQARFSPAERIVNSNGELVHEHCFVCAQCFRPFPEGLFYEFEGRKYCEHDFQML [Y24V]	-0.072 ± 0.054
AVCQRCQARFSPAERIVNSNGELHHEHCFVCAQCFRPFPEGLFYEFEGRKYCEHDFQML [Y24H]	-0.16 ± 0.078
AVCQRCQARFSPAERIVNSNGELEHEHCFVCAQCFRPFPEGLFYEFEGRKYCEHDFQML [Y24E]	-0.303 ± 0.069
AVCQRCQARFSPAERIVNSNGELIHEHCFVCAQCFRPFPEGLFYEFEGRKYCEHDFQML [Y24I]	-0.137 ± 0.062
AVCQRCQARFSPAERIVNSNGELKHEHCFVCAQCFRPFPEGLFYEFEGRKYCEHDFQML [Y24K]	-0.257 ± 0.061
AVCQRCQARFSPAERIVNSNGELNHEHCFVCAQCFRPFPEGLFYEFEGRKYCEHDFQML [Y24N]	-0.474 ± 0.11
AVCQRCQARFSPAERIVNSNGELTHEHCFVCAQCFRPFPEGLFYEFEGRKYCEHDFQML [Y24T]	-0.232 ± 0.054
AVCQRCQARFSPAERIVNSNGELYMEHCFVCAQCFRPFPEGLFYEFEGRKYCEHDFQML [H25M]	-0.856 ± 0.1
AVCQRCQARFSPAERIVNSNGELYPEHCFVCAQCFRPFPEGLFYEFEGRKYCEHDFQML [H25P]	-0.752 ± 0.1
AVCQRCQARFSPAERIVNSNGELYDEHCFVCAQCFRPFPEGLFYEFEGRKYCEHDFQML [H25D]	-0.96 ± 0.27
AVCQRCQARFSPAERIVNSNGELYQEHCFVCAQCFRPFPEGLFYEFEGRKYCEHDFQML [H25Q]	-0.987 ± 0.17
AVCQRCQARFSPAERIVNSNGELYFEHCFVCAQCFRPFPEGLFYEFEGRKYCEHDFQML [H25F]	-0.895 ± 0.16
AVCQRCQARFSPAERIVNSNGELYAEHCFVCAQCFRPFPEGLFYEFEGRKYCEHDFQML [H25A]	-0.918 ± 0.14
AVCQRCQARFSPAERIVNSNGELYGEHCFVCAQCFRPFPEGLFYEFEGRKYCEHDFQML [H25G]	-0.832 ± 0.14
AVCQRCQARFSPAERIVNSNGELYIEHCFVCAQCFRPFPEGLFYEFEGRKYCEHDFQML [H25I]	-0.972 ± 0.18
AVCQRCQARFSPAERIVNSNGELYLEHCFVCAQCFRPFPEGLFYEFEGRKYCEHDFQML [H25L]	-0.668 ± 0.06

Variant	abundance fitness
AVCQRCQARFSPAERIVNSNGELYREHCFVCAQCFRPFPEGLFYEFEGRKYCEHDFQML [H25R]	-0.784 ± 0.083
AVCQRCQARFSPAERIVNSNGELYCEHCFVCAQCFRPFPEGLFYEFEGRKYCEHDFQML [H25C]	0.048 ± 0.095
AVCQRCQARFSPAERIVNSNGELYKEHCFVCAQCFRPFPEGLFYEFEGRKYCEHDFQML [H25K]	-0.929 ± 0.15
AVCQRCQARFSPAERIVNSQGELYHEHCFVCAQCFRPFPEGLFYEFEGRKYCEHDFQML [N20Q]	-0.116 ± 0.11
AVCQRCQARFSPAERIVNSLGELYHEHCFVCAQCFRPFPEGLFYEFEGRKYCEHDFQML [N20L]	-0.136 ± 0.062
AVCQRCQARFSPAERIVNSKGELYHEHCFVCAQCFRPFPEGLFYEFEGRKYCEHDFQML [N20K]	0.797 ± 0.096
AVCQRCQARFSPAERIVNSRGELYHEHCFVCAQCFRPFPEGLFYEFEGRKYCEHDFQML [N20R]	-0.161 ± 0.065
AVCQRCQARFSPAERIVNSMGELYHEHCFVCAQCFRPFPEGLFYEFEGRKYCEHDFQML [N20M]	-0.155 ± 0.1
AVCQRCQARFSPAERIVNSIGELYHEHCFVCAQCFRPFPEGLFYEFEGRKYCEHDFQML [N20I]	-0.482 ± 0.2
AVCQRCQARFSPAERIVNSTGELYHEHCFVCAQCFRPFPEGLFYEFEGRKYCEHDFQML [N20T]	-0.085 ± 0.11
AVCQRCQARFSPAERIVNSSGELYHEHCFVCAQCFRPFPEGLFYEFEGRKYCEHDFQML [N20S]	0.087 ± 0.067
AVCQRCQARFSPAERIVNSYGELYHEHCFVCAQCFRPFPEGLFYEFEGRKYCEHDFQML [N20Y]	-0.376 ± 0.15
AVCQRCQARFSPAERIVNSHGELYHEHCFVCAQCFRPFPEGLFYEFEGRKYCEHDFQML [N20H]	0.087 ± 0.11
AVCQRCQARFSPAERIVNSPGELYHEHCFVCAQCFRPFPEGLFYEFEGRKYCEHDFQML [N20P]	-0.528 ± 0.12
AVCQRCQARFSPAERIVNSNGEQYHEHCFVCAQCFRPFPEGLFYEFEGRKYCEHDFQML [L23Q]	0.123 ± 0.051
AVCQRCQARFSPAERIVNSNGETYHEHCFVCAQCFRPFPEGLFYEFEGRKYCEHDFQML [L23T]	-0.009 ± 0.048
AVCQRCQARFSPAERIVNSNGEEYHEHCFVCAQCFRPFPEGLFYEFEGRKYCEHDFQML [L23E]	-0.18 ± 0.065
AVCQRCQARFSPAERIVNSNGEGYHEHCFVCAQCFRPFPEGLFYEFEGRKYCEHDFQML [L23G]	-0.2 ± 0.052
AVCQRCQARFSPAERIVNSNGECYHEHCFVCAQCFRPFPEGLFYEFEGRKYCEHDFQML [L23C]	-0.185 ± 0.091
AVCQRCQARFSPAERIVNSNGEYYHEHCFVCAQCFRPFPEGLFYEFEGRKYCEHDFQML [L23Y]	0.186 ± 0.1
AVCQRCQARFSPAERIVNSNGESYHEHCFVCAQCFRPFPEGLFYEFEGRKYCEHDFQML [L23S]	-0.003 ± 0.045
AVCQRCQARFSPAERIVNSNGEIYHEHCFVCAQCFRPFPEGLFYEFEGRKYCEHDFQML [L23I]	0.078 ± 0.12
